# Test results from the supplement of paper PMC7877785.
# ± gives the uncertainty stated by the source.
# Test: self-splicing fitness, log relative to wild type (ln ratio); higher = more splicing; Tetrahymena group I intron in knt gene, E. coli kanamycin selection, DiMSum; sequences stand for … in CUCUCU…GGAGGGAAAAGUUAUCAGGCAUGCACCUGGUAGCUAGUCUUUAAACCAAUAGAUUGCAUCGGUUUAAAAGGCAAGACCGUCAAAUUGCGGGAAAGGGGUCAACAGCCGUUCAGUACCAAGUCUCAGGGGAAACUUUGAGAUGGCCUUGCAAAGGGUAUGGUAAUAAGCUGACGGACAUGGUCCUAACCACGCAGCCAAGUCCUAAGUCAACAGAUCUUCUGUUGAUAUGGAUGCAGUUCACAGACUAAAUGUCGGUCGGGGAAGAUGUAUUCUUCUCAUAAGAUAUAGUCGGACCUCUCCUUAAUGGGAGCUAGCGGAUGAAGUGAUGCAACACUGGAGCCGCUGGGAACUAAUUUGUAUGCGAAAGUAUAUUGAUUAGUUUUGGAGUACUCGUGGUCG
# Procedure, shortened: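 Six replicate transformations of E. coli BL21(DE3) with a pET-22b(+) library were grown overnight at 37°C or 30°C. The library randomised all eight P1ex-region intron nucleotides, the intron lying in the knt kanamycin-resistance gene, and plates were LB agar with or without 25 μg/mL kanamycin plus 100 μg/mL carbenicillin, 50 μM IPTG and 0.2% rhamnose. Pooled colonies were amplicon-sequenced on an Illumina HiSeq 2500, and fitness is the DiMSum error-weighted combination of wild-type-normalised replicate fold changes, kanamycin versus none.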
Sequence,self-splicing fitness (ln) (30 °C),self-splicing fitness (ln) (37 °C)
GGCCAGCAAUAUUACGUGAA,-1.67 ± 0.066,-0.271 ± 0.077
GGCCAGCAAUAUUACGUGUG,-1.15 ± 0.051,-0.323 ± 0.066
GGCCAGCAAUAUUACGUUCC,-1.28 ± 0.14,0.125 ± 0.18
GGCGAGCAAUAUUACGAACU,-1.3 ± 0.16,0.292 ± 0.18
GGCGAGCAAUAUUACGAAGG,-3.8 ± 0.27,-2.88 ± 0.4
GGCGAGCAAUAUUACGAGGC,-3.5 ± 0.23,-3.02 ± 0.27
GGCGAGCAAUAUUACGAUUC,-0.495 ± 0.1,0.463 ± 0.14
GGCGAGCAAUAUUACGCAAG,-2.96 ± 0.34,-2.3 ± 0.24
GGCGAGCAAUAUUACGCCAA,–,-2.45 ± 0.49
GGCGAGCAAUAUUACGCCGU,-3.44 ± 0.47,-1.28 ± 0.45
GGCGAGCAAUAUUACGCCUA,–,-1.76 ± 0.23
GGCGAGCAAUAUUACGCUGG,-1.39 ± 0.36,–
GGCGAGCAAUAUUACGCUGU,-2.63 ± 0.22,-2.66 ± 0.27
GGCGAGCAAUAUUACGGAUU,-1.21 ± 0.17,-1.06 ± 0.24
GGCGAGCAAUAUUACGGCAA,-0.896 ± 0.19,-0.442 ± 0.2
GGCGAGCAAUAUUACGGGGA,-2.39 ± 0.2,-2.29 ± 0.29
GGCGAGCAAUAUUACGGGGC,-3.65 ± 0.29,-2.96 ± 0.34
GGCGAGCAAUAUUACGGUAA,-2.66 ± 0.16,-1.77 ± 0.2
GGCGAGCAAUAUUACGGUAC,-2.08 ± 0.17,-1.98 ± 0.19
GGCGAGCAAUAUUACGUAGA,-2.07 ± 0.093,-1.27 ± 0.12
GGCGAGCAAUAUUACGUCAA,-3.73 ± 0.34,-1.71 ± 0.15
GGCGAGCAAUAUUACGUCUU,-0.851 ± 0.047,-0.197 ± 0.06
GGCGAGCAAUAUUACGUGUA,-2.41 ± 0.15,-1.16 ± 0.14

Sequence,self-splicing fitness (ln) (30 °C),self-splicing fitness (ln) (37 °C)
GGCUAGCAAUAUUACGAAGA,-2.05 ± 0.43,-0.778 ± 0.36
GGCUAGCAAUAUUACGACAG,-2.88 ± 0.35,-1.85 ± 0.34
GGCUAGCAAUAUUACGACAU,-0.413 ± 0.013,0.0789 ± 0.033
GGCUAGCAAUAUUACGAUAU,-1.79 ± 0.17,-1.84 ± 0.16
GGCUAGCAAUAUUACGAUCC,0.227 ± 0.47,–
GGCUAGCAAUAUUACGAUGG,–,-2.46 ± 0.23
GGCUAGCAAUAUUACGCACG,-0.276 ± 0.093,-0.119 ± 0.1
GGCUAGCAAUAUUACGCCCU,–,0.0828 ± 0.36
GGCUAGCAAUAUUACGCCUA,-0.205 ± 0.23,-1.69 ± 0.3
GGCUAGCAAUAUUACGCCUU,–,-0.73 ± 0.19
GGCUAGCAAUAUUACGCGGA,-0.936 ± 0.22,-0.393 ± 0.22
GGCUAGCAAUAUUACGCGUG,-0.672 ± 0.071,-1.13 ± 0.083
GGCUAGCAAUAUUACGCUUC,-2.51 ± 0.21,-1.61 ± 0.26
GGCUAGCAAUAUUACGCUUG,-3.03 ± 0.19,-2.19 ± 0.19
GGCUAGCAAUAUUACGGACA,-0.485 ± 0.091,-0.398 ± 0.098
GGCUAGCAAUAUUACGGCUG,0.0242 ± 0.097,-0.992 ± 0.12
GGCUAGCAAUAUUACGUACU,-0.354 ± 0.077,0.312 ± 0.11
GGCUAGCAAUAUUACGUAUC,-0.368 ± 0.098,-0.254 ± 0.12
GGCUAGCAAUAUUACGUCAG,-2.81 ± 0.45,–
GGCUAGCAAUAUUACGUCUU,-0.274 ± 0.075,0.396 ± 0.088
GGCUAGCAAUAUUACGUGAG,-1.21 ± 0.087,-0.194 ± 0.092
GGCUAGCAAUAUUACGUGGA,-1.81 ± 0.14,-0.667 ± 0.12
